The record followed here is publication PMC2841503 (Molecular cell, 2010).

This experiment addresses yeast ubiquitin (yeast, UniProt P0CG63 1-76). Description: NMR titration.

Chain of yeast ubiquitin (P0CG63 1-76): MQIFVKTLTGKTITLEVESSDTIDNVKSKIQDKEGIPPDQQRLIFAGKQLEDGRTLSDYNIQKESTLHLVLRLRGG

B1: S. cerevisiae Rev1 UBM2 (residues 804-857), GB1-fusion protein (domain or fragment, UniProt P12689 804-857, looked up)
chain: LEVNDLPSTMEEQFMNELPTQIRAEVRHDLRIQKKIQQTKLGNLQEKIKRREES
Turning to B1, the binding result is on record as “binds”.
